Experimental data taken from the supplement of paper PMC10567573.

B1: SMG5 (parent)
chain: TRKLSPGKKRCKDIKRLLVNFMYL
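Note: lentivirally expressed fusions sorted by FACS into six bins by GFP to DsRed ratio, PSI derived from sequencing read proportions per bin multiplied by bin number.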

Variants of: B1
Experiment: protein stability index of a GFP-peptide fusion (GPS, HEK-293T) (PSI 1-6); higher = more stable
Details: c terminus: a fixed tail appended
TRKLSPGKKRCKVIKRLLVNFMYL [D13V] gave a protein stability index of 3.74. Variant TRKLSPGKKRCKTIKRLLVNFMYL [D13T] has a protein stability index of 3.66. Work on TRKLSPGKKRCKSIKRLLVNFMYL [D13S] yielded a protein stability index of 2.42. Variant TRKLSPGKKRCKPIKRLLVNFMYL [D13P] has a protein stability index of 2.62. TRKLSPGKKRCKYIKRLLVNFMYL [D13Y] gave a protein stability index of 1.79. For TRKLSPGKKRCKQIKRLLVNFMYL [D13Q], the protein stability index was 3.52. In the case of TRKLSPGKKRCKLIKRLLVNFMYL [D13L], the protein stability index is reported as 2.93. With TRKLSPGKKRCKMIKRLLVNFMYL [D13M] the protein stability index was 2.54. TRKLSPGKKRCKAIKRLLVNFMYL [D13A] showed a protein stability index of 2.75. Work on TRKLSPGKKRCKNIKRLLVNFMYL [D13N] yielded a protein stability index of 1.5. TRKLSPGKKRCKDIKRLLVNFMRL [Y23R] gave a protein stability index of 2.05. With TRKLSPGKKRCKDIKRLLVNFMML [Y23M] the protein stability index was 2.94. TRKLSPGKKRCKDIKRLLVNFMTL [Y23T] showed a protein stability index of 2.18. In the case of TRKLSPGKKRCKDIKRLLVNFMWL [Y23W], the protein stability index is reported as 2.16. For TRKLSPGKKRCKDIKRLLVNFMAL [Y23A], the protein stability index was 2.85. With TRKLSPGKKRCKDIKRLLVNFMHL [Y23H] the protein stability index was 2.35. Variant TRKLSPGKKRCKDIKRLLVNFMKL [Y23K] has a protein stability index of 2.93. Variant TRKLSPGKKRCKDIKRLLVNFMFL [Y23F] has a protein stability index of 1.64. TRKLSPGKKRCKDIKRLLVNFMSL [Y23S] showed a protein stability index of 3.81. With TRKLSPGKKRCKDIKRLLVNFMDL [Y23D] the protein stability index was 2.01. Work on TRKLSPGKKRCKDIKRLLVNFMVL [Y23V] yielded a protein stability index of 4.04. In the case of TRKLSPGKKRCKDIKRLLVNFMIL [Y23I], the protein stability index is reported as 3.31. Work on TRKLSPGKKRCKDIKRLLVNFMPL [Y23P] yielded a protein stability index of 1.81. With TRKLSPGKKRCKDIKRALVNFMYL [L17A] the protein stability index was 1.77. Work on TRKLSPGKKRCKDIKRGLVNFMYL [L17G] yielded a protein stability index of 3.06. For TRKLSPGKKRCKDIKRVLVNFMYL [L17V], the protein stability index was 1. In the case of TRKLSPGKKRCKDIKRTLVNFMYL [L17T], the protein stability index is reported as 1.9. Variant TRKLSPGKKRCKDIKRHLVNFMYL [L17H] has a protein stability index of 1.3. With TRKLSPGKKRCKDIKRELVNFMYL [L17E] the protein stability index was 1.55. For TRKLSPGKKRCKDIKRYLVNFMYL [L17Y], the protein stability index was 2.65. Work on TRKLSPGKKRCKDIKRRLVNFMYL [L17R] yielded a protein stability index of 1.84. TRKLSPGKKRCKDIKRMLVNFMYL [L17M] showed a protein stability index of 2.12. With TRKLSPGKKRCKDIKRPLVNFMYL [L17P] the protein stability index was 1.5. TRKLSPGKKRCKDIKRSLVNFMYL [L17S] gave a protein stability index of 2.56. TRKLSPGKKRCKDIKRKLVNFMYL [L17K] showed a protein stability index of 2.64. With TRKLSPGKKRCKDIKRQLVNFMYL [L17Q] the protein stability index was 1.5. In the case of TRKLSPGKKRCKDIKRDLVNFMYL [L17D], the protein stability index is reported as 2.24. With TRKLSPGKKRCKDIKRFLVNFMYL [L17F] the protein stability index was 3.34. Variant TRKLSPGKKRCLDIKRLLVNFMYL [K12L] has a protein stability index of 3.13. TRKLSPGKKRCPDIKRLLVNFMYL [K12P] gave a protein stability index of 2.41. Work on TRKLSPGKKRCRDIKRLLVNFMYL [K12R] yielded a protein stability index of 2.47. TRKLSPGKKRCNDIKRLLVNFMYL [K12N] gave a protein stability index of 2.14. In the case of TRKLSPGKKRCTDIKRLLVNFMYL [K12T], the protein stability index is reported as 2.96. Variant TRKLSPGKKRCVDIKRLLVNFMYL [K12V] has a protein stability index of 2.02. Work on TRKLSPGKKRCYDIKRLLVNFMYL [K12Y] yielded a protein stability index of 2.96. For TRKLSPGKKRCWDIKRLLVNFMYL [K12W], the protein stability index was 3.15. In the case of TRKLSPGKKRCMDIKRLLVNFMYL [K12M], the protein stability index is reported as 1.74. For TRKLSPGKKRCSDIKRLLVNFMYL [K12S], the protein stability index was 2.06. For TRKLSPGKKRCQDIKRLLVNFMYL [K12Q], the protein stability index was 2.46. In the case of TRKLSPGKKRCKDVKRLLVNFMYL [I14V], the protein stability index is reported as 2.2. Variant TRKLSPGKKRCKDHKRLLVNFMYL [I14H] has a protein stability index of 2.23. In the case of TRKLSPGKKRCKDSKRLLVNFMYL [I14S], the protein stability index is reported as 2.53. TRKLSPGKKRCKDMKRLLVNFMYL [I14M] gave a protein stability index of 2.34. In the case of TRKLSPGKKRCKDPKRLLVNFMYL [I14P], the protein stability index is reported as 3.95. With TRKLSPGKKRCKDQKRLLVNFMYL [I14Q] the protein stability index was 1.5. TRKLSPGKKRCKDGKRLLVNFMYL [I14G] showed a protein stability index of 1.18. TRKLSPGKKRCKDKKRLLVNFMYL [I14K] showed a protein stability index of 1.19. For TRKLSPGKKRCKDNKRLLVNFMYL [I14N], the protein stability index was 1.45. For TRKLSPGKKRCKDRKRLLVNFMYL [I14R], the protein stability index was 2.19. Variant TRKLSPGKKRCKDDKRLLVNFMYL [I14D] has a protein stability index of 1.56. TRKLSPGKKRCKDFKRLLVNFMYL [I14F] showed a protein stability index of 2.36. Variant TRKLSPGKKRCKDWKRLLVNFMYL [I14W] has a protein stability index of 2.49. In the case of TRKLSPGKKRCKDTKRLLVNFMYL [I14T], the protein stability index is reported as 2.05. TRKLSPGKKRCKDLKRLLVNFMYL [I14L] gave a protein stability index of 2.27. TRKLSPGKKRCKDAKRLLVNFMYL [I14A] showed a protein stability index of 2.13. TRKLSPGKKRCKDCKRLLVNFMYL [I14C] gave a protein stability index of 3.55. In the case of TRKLSPGKKRCKDEKRLLVNFMYL [I14E], the protein stability index is reported as 1.32. Work on TRKLSPGKKRCKDIKRLLVDFMYL [N20D] yielded a protein stability index of 3.56. Work on TRKLSPGKKRCKDIKRLLVVFMYL [N20V] yielded a protein stability index of 2.79. Variant TRKLSPGKKRCKDIKRLLVHFMYL [N20H] has a protein stability index of 3.2. TRKLSPGKKRCKDIKRLLVYFMYL [N20Y] showed a protein stability index of 2.56. For TRKLSPGKKRCKDIKRLLVIFMYL [N20I], the protein stability index was 3.42. TRKLSPGKKRCKDIKRLLVSFMYL [N20S] gave a protein stability index of 3.78. For TRKLSPGKKRCKDIKRLLVFFMYL [N20F], the protein stability index was 4.01. In the case of TRKLSPGKKRCKDIKRLLVPFMYL [N20P], the protein stability index is reported as 3.07. With TRKLSPGKKRCKDIKRLLVEFMYL [N20E] the protein stability index was 3.09. Variant TRKLSPGKKRCKDIKRLLVQFMYL [N20Q] has a protein stability index of 3.52. Variant TRKLSPGKKRCKDIKRLLVKFMYL [N20K] has a protein stability index of 2.12. TRKLSPGKKRCKDIKRLLVWFMYL [N20W] showed a protein stability index of 1.09. Variant TRKLSPGKKRCKDIKRLLVNFEYL [M22E] has a protein stability index of 2.45. Variant TRKLSPGKKRCKDIKRLLVNFNYL [M22N] has a protein stability index of 1.95. For TRKLSPGKKRCKDIKRLLVNFPYL [M22P], the protein stability index was 2.39. Variant TRKLSPGKKRCKDIKRLLVNFKYL [M22K] has a protein stability index of 1.86. For TRKLSPGKKRCKDIKRLLVNFHYL [M22H], the protein stability index was 1.65. TRKLSPGKKRCKDIKRLLVNFQYL [M22Q] gave a protein stability index of 1.34. TRKLSPGKKRCKDIKRLLVNFYYL [M22Y] showed a protein stability index of 2.96. For TRKLSPGKKRCKDIKRLLVNFGYL [M22G], the protein stability index was 2.04. Variant TRKLSPGKKRCKDIKRLLVNFDYL [M22D] has a protein stability index of 2.34. With TRKLSPGKKRCKDIKRLLVNFSYL [M22S] the protein stability index was 1.39. In the case of TRKLSPGKKRCKDIKRLLVNFCYL [M22C], the protein stability index is reported as 1.75. TRKLSPGKKRCKDIKRLLVNFFYL [M22F] gave a protein stability index of 2.29. TRKLSPGKKRCKDIKRLLVNFTYL [M22T] gave a protein stability index of 2.11. Work on TRKLSPGKKRCKDIKRLLVNFVYL [M22V] yielded a protein stability index of 2.33. In the case of TRKLSPGKKRCKDIKRLLVNFRYL [M22R], the protein stability index is reported as 2.4.
